# From the RNAGym collection of RNA variant scans (doi:10.1093/nar/gkz1192)
# B1: CPEB3 Ribozyme (parent)
# chain: UAACAGGGGGCCACAGCAGAAGCGUUCACGUCGCAGCCCCUGUCAGAUUCUGGUGAAUCUGCGAAUUCUGCUGUAUAUCUC
# Variants of: B1
# Test: self-cleavage, relative activity (ratio to wild type); higher = more cleavage; in vitro, sequencing
# In short: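 After error-prone PCR and barcoding, CPEB3 ribozyme mutant libraries were transcribed with T7 RNA polymerase at 37°C for 5 hours, then given 15 min with DNase I before an EDTA stop, and they cleaved during both steps. Reverse transcription with template switching preceded Illumina sequencing. Relative activity divides a variant's cleaved/total read fraction by the unmutated ribozyme's. At least 5 reads were required per variant, and three batches were averaged.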
row,Variant,self-cleavage
1,C12A G19A,0.43
2,C11G U43C,0.29
3,C11G U43A,0.67
4,C11G U78G,0.59
5,C11G U78A,0.8
6,C11G U78C,0.43
7,C11G C44G,0.32
8,C12G A20G,0.44
9,C11U G52A,0.62
10,C12U A77C,1.03
11,C12U A77G,1.19
12,C12G A45C,0.12
13,C11U U74A,0.96
14,C11U U74C,0.83
15,C11U U43A,0.68
16,C11U U43C,0.35
17,C12A U69C,0.72
18,C12A U69A,0.7
19,C12G C29G,0.24
20,C11G U80C,0.55
21,C11G U80A,0.76
22,C12A U60C,0.3
23,C12G G24A,0.19
24,C12G U48G,0.35

row,Variant,self-cleavage
1,C12G U26C,0.24
2,C12U C29U,0.96
3,C12U C23U,0.52
4,C11G G70A,0.26
5,C11G G70U,0.23
6,C11G C71U,0.16
7,C11U G53U,0.43
8,C11U G53C,0.4
9,C11G U25A,0.1
10,C11G U25C,0.22
11,C12A G55C,0.78
12,C11A U66C,0.12
13,C12A U48G,0.2
14,C11G C39A,0.38
15,C11G C39G,0.11
16,C11U A77U,0.47
17,C11U A77G,0.41
18,C11G A77G,0.64
19,C11U U26A,0.36
20,C11U U26C,0.31
21,C12G U66C,0.24
22,C11G A75U,0.78
23,C11G A75G,0.41
24,C11G U72C,0.69

row,Variant,self-cleavage
1,C12A C40U,0.69
2,C12A C40A,0.3
3,C12A U49C,0.63
4,C11U U41A,0.3
5,C11U U41C,0.51
6,C12U A20G,1.19
7,C12U A20U,0.38
8,C11G C81U,0.86
9,C12A C29U,0.7
10,C12G U49C,0.16
11,C12A U25C,0.42
12,C11G G42U,0.37
13,C11U A21G,0.28
14,C11A U60C,0.2
15,C11U C14A,0.93
16,C12G U54C,0.51
17,C11U G61C,0.11
18,C11U A13G,0.43
19,C11U A13U,0.49
20,C11U A13C,0.09
21,C12U C17U,1.13
22,C12U A65G,1.07
23,C12U A65U,0.42
24,C11G U58A,0.39

row,Variant,self-cleavage
1,C12U A64U,0.83
2,C12U A64G,1.41
3,C11U A35G,1.27
4,C11U A35U,0.33
5,C12G A57G,0.41
6,C12A U58C,0.54
7,C12A G24U,0.33
8,C12G U76C,0.66
9,C11G G73C,0.97
10,C12A A21G,0.73
11,C12U A13U,1.15
12,C12U A13G,0.74
13,C12U A13C,1.16
14,C12A U51A,1.06
15,C11G U74A,0.96
16,C11G U74C,0.91
17,C11G U74G,0.84
18,C12G U78C,0.71
19,C11G A13G,0.32
20,C11G A13U,0.75
21,C11U A64G,0.34
22,C12G U43C,0.38
23,C11U G63A,0.24
24,C11U G42A,0

row,Variant,self-cleavage
1,C12A A57G,1.06
2,C12G C40A,0.11
3,C11G U60A,0.12
4,C11G U60G,0.21
5,C11G U60C,0.29
6,C11G G36U,0.09
7,C11G A65G,0.21
8,C11U U69A,0.24
9,C11G A21G,0.3
10,C11G A21C,0.08
11,C11G A28G,0.24
12,C11G,0.52
13,C11U,0.44
14,C12A A35U,1.27
15,C12A A35G,0.9
16,C11G U31G,0.27
17,C11G U31C,0.22
18,C11G U31A,0.33
19,C12G A65U,0.1
20,C12G A65G,0.18
21,C12G U72A,0.29
22,C11U C62U,0.11
23,C12A G46U,0.38
24,C11G C34G,0.38

row,Variant,self-cleavage
1,C11U U66C,0.2
2,C12U A18G,0.95
3,C12U A18U,0.62
4,C12U A28C,0.94
5,C12U A28U,1.12
6,C12U A28G,0.89
7,C12A A15G,1.19
8,C12A A15C,1.17
9,C12G U25C,0.14
10,C11G U69A,0.11
11,C11G U69C,0.25
12,C11G U69G,0.14
13,C11U C23U,0.24
14,C11U U72C,0.64
15,C11U U72A,0.42
16,C11U U72G,0.37
17,C12U A45G,1.25
18,C12U A45C,0.64
19,C12U A45U,0.83
20,C11G U26C,0.24
21,C11G U26A,0.34
22,C11U G73A,1.25
23,C11U U80A,0.31
24,C11U U80C,0.45

row,Variant,self-cleavage
1,C12A G30U,0.26
2,C12A A18U,0.48
3,C12G A15G,0.1
4,C11G A47G,0.61
5,C11U C68A,0.11
6,C12G G30A,0.29
7,C11U U60C,0.14
8,C11U C40U,0.27
9,C11U U78C,0.33
10,C11U U78A,0.53
11,C11U U51C,0.44
12,C11U U51G,0.35
13,C11U U51A,0.42
14,C12A A13G,0.89
15,C12A A13U,1.25
16,C12A A13C,1.23
17,C12A U54A,1.1
18,C12A U54C,1.12
19,C11U A15G,0.4
20,C11U A15C,0.5
21,C11U A15U,0.35
22,C11G U76C,0.61
23,C11G U76A,0.49
